Source: paper PMC13457854 (Cell Discovery, 2026)

Key:
[1] = target: T1, BTN3A1/BTN3A2 heterodimer (human, UniProt O00481 30-513; P78410 30-334); assay: AUC; sedimentation velocity, 40,000 rpm, 20 °C, 25 mM HEPES pH 7.4, 150 mM NaCl, 0.02% GDN, absorbance at 280 nm; no HMBPP (3A2 complex also with 40 μM HMBPP: less of the high-mass species); details: both partners purified
T1 construct: BTN3A1, human; synthetic signal peptide fused to the N-terminus; BTN3A2, human; copies: 1 + 1

BTN3A1 = target: T2, BTN3A1 (human, UniProt O00481 30-513); assay: as above; details: both partners purified
T2 construct: BTN3A1, human, codon-optimised synthetic cDNA; Construct details are in the Supplementary Information; source: ExpiHEK293F, transfected; purified within the 3A2/3A3 complex (anti-Flag, Strep-Tactin XT, SEC)
T2 sequence (O00481 30-513): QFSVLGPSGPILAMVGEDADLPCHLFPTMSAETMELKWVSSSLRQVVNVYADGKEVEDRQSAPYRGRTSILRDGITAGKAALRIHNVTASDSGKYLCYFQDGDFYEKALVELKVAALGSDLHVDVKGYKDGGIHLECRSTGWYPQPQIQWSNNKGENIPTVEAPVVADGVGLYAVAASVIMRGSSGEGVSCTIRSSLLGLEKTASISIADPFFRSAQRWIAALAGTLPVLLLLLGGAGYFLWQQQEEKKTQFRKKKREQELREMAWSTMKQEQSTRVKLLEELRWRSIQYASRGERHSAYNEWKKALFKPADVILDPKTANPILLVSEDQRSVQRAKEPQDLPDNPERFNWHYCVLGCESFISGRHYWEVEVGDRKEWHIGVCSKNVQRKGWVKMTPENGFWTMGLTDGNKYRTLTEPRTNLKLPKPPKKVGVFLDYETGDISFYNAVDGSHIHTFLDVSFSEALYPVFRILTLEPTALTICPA

binding result [1] | binding result (BTN3A1) | Binder
binds |  | BTN2A1 (natural protein, human, UniProt Q7KYR7 29-527, looked up, BTN2A1, human, codon-optimised synthetic cDNA; construct details are in the Supplementary Information; also called BTN2A1 homodimer; BTN2A1 dimer; source: ExpiHEK293F, transfected; purified within the 3A2/3A3 complex (anti-Flag, Strep-Tactin XT, SEC)) QFIVVGPTDPILATVGENTTLRCHLSPEKNAEDMEVRWFRSQFSPAVFVYKGGRERTEEQMEEYRGRTTFVSKDISRGSVALVIHNITAQENGTYRCYFQEGRSYDEAILHLVVAGLGSKPLISMRGHEDGGIRLECISRGWYPKPLTVWRDPYGGVAPALKEVSMPDADGLFMVTTAVIIRDKSVRNMSCSINNTLLGQKKESVIFIPESFMPSVSPCAVALPIIVVILMIPIAVCIYWINKLQKEKKILSGEKEFERETREIALKELEKERVQKEEELQVKEKLQEELRWRRTFLHAVDVVLDPDTAHPDLFLSEDRRSVRRCPFRHLGESVPDNPERFDSQPCVLGRESFASGKHYWEVEVENVIEWTVGVCRDSVERKGEVLLIPQNGFWTLEMHKGQYRAVSSPDRILPLKESLCRVGVFLDYEAGDVSFYNMRDRSHIYTCPRSAFSVPVRPFFRLGCEDSPIFICPALTGANGVTVPEEGLTLHRVGTHQSL
 | binds | BTN3A2 (natural protein, BTN3A2, human, codon-optimised synthetic cDNA; Construct details are in the Supplementary Information; source: ExpiHEK293F, transfected; purified within the 3A2 complex (anti-Flag, Strep-Tactin XT, SEC)) not shown
